Measurements published in patent US12241890B2, “Methods for generating barcoded nucleic acid molecules using fixed cells” (10X Genomics, Inc., priority 2019, dated 2025).

Legend:
Assay type in all cases: cell-based
PFA-fixed Jurkats cells [1] = assay: RNA yield and DV200 from PFA-fixed Jurkats after Subtilisin A with or without compound (1) (Example 2); details: 4% PFA-fixed Jurkats, 50 mM compound (1) where present
Experimental: Materials and Methods: A protease stock solution of 100 mg/ml Subtilisin A from Bacillus licheniformis (Sigma-Aldrich, cat. #P5380) was prepared in H2O and stored at −20° C. A stock solution of the un-fixing agent of 100 mM compound (1) in 30 mM Tris-HCl, 1 mM EDTA, pH 6.8, was prepared and stored at room temperature. Dissociated single cells (Jurkats) were pelleted by 400 g centrifugation for 5 minutes and the supernatant removed. A fixing reagent solution of 4% PFA in PBS with 0.2 U/μL Qiagen RNAse Inhibitor (Qiagen, cat. #129916) was added to the pelleted cells and the mixture incubated at 4° C. overnight. The resulting fixed cells were quenched with 10% FBS in PBS and spun down for 5 minutes at 500 g, 4° C. 150,000 fixed cells were washed once in PBS then resuspended in 100 μL, 30 mM Tris-HCL, 1 mM EDTA, pH 6.8. RNAse Inhibitor was added to the fixed cell solution together with one of the following: (a) 5 mg/mL Subtilisin A; or (b) 5 mg/mL Subtilisin A and 50 mM compound (1). The fixed cell solution with Subtilisin A protease and with or without the un-fixing agent of compound (1) was allowed to incubate at 8° C. for 2 hours, followed by 15 minutes at 70° C. shaking continuously at 300 rpm on an Eppendorf Thermomixer. The resulting cell solutions were spun down for 5 minutes at 500 g, 4° C., and the supernatant and pellet fractions were collected separately. RNA extraction of the collected fractions was carried out using Qiagen 96 Kit (Qiagen, cat. #74181), bulk RNA sequencing, and/or single cell 3′ sequencing. Control samples of fresh cells, fresh cells with un-fixing conditions, and fixed cells without un-fixing treatment were also prepared and RNA extracted. RNA yield was assessed by Qubit HS Assay (Q32855) and yield and DV200 quality metric was assessed by Agilent 4200 High Sensitivity ScreenTape (5067-5579).

PFA-fixed Jurkats cells [2] = assay: RNA yield and DV200 from PFA-fixed Jurkats after Subtilisin A with or without compounds (1) and/or (8) (Example 4); details: 5 mg/mL Subtilisin A
Experimental: A. Protease preparation: A protease stock solution of 100 mg/ml Subtilisin A from Bacillus licheniformis (Sigma-Aldrich, cat. #P5380) was prepared in H2O and stored at −20° C.
(§1) B. Un-fixing agent stock solutions: A stock solution of the un-fixing agent of 100 mM compound (1) in 30 mM Tris-HCl, 1 mM EDTA, pH 6.8, was prepared and stored at room temperature. A stock solution of the un-fixing agent of 100 mM compound (8) in 30 mM Tris-HCl, 1 mM EDTA, pH 6.8, was prepared and stored at room temperature.
(§2) C. Fixed cell preparation: Dissociated single cells (Jurkats) were pelleted by 400 g centrifugation for 5 minutes and the supernatant removed. A fixing reagent solution of 4% PFA in PBS with 0.2 U/μL Qiagen RNAse Inhibitor (Qiagen, cat. #129916) was added to the pelleted cells and the mixture incubated at 4° C. overnight. The resulting fixed cells were quenched with 10% FBS in PBS and spun down for 5 minutes at 500 g, 4° C. 150,000 fixed cells were washed once in PBS then resuspended in 100 μL, 30 mM Tris-HCL, 1 mM EDTA, pH 6.8.
D. Cell un-fixing/protease treatment: RNAse Inhibitor was added to the fixed cell solution together with one of the following: (a) 5 mg/mL Subtilisin A protease; (b) 5 mg/mL Subtilisin A protease and 50 mM compound (1); (c) 5 mg/mL Subtilisin A protease and 50 mM compound (8); (d) 5 mg/mL Subtilisin A protease and 25 mM compound (8) and 25 mM compound (1).
The fixed cell solutions treated with Subtilisin A protease and with or without the un-fixing agents of compounds (1) and/or (8) were allowed to incubate under one of the following conditions: (1) 8° C. for 2 hours; (2) 8° C. for 2 hours, followed by 15 minutes at 70° C. shaking continuously at 300 rpm on an Eppendorf Thermomixer; (3) 53° C. for 45 min; or (4) 53° C. for 45 min followed by 15 minutes at 70° C. shaking continuously at 300 rpm on an Eppendorf Thermomixer. The resulting cell solutions were spun down for 5 minutes at 500 g, 4° C., and the supernatant and pellet fractions were collected separately.
(§3) E. RNA quantitation: RNA extraction of the collected fractions was carried out using Qiagen 96 Kit (Qiagen, cat. #74181), bulk RNA sequencing, and/or single cell 3′ sequencing. Control samples of fresh cells, fresh cells with un-fixing conditions, and fixed cells without un-fixing treatment were also prepared and RNA extracted. RNA yield was assessed by Qubit HS Assay (Q32855) and yield and DV200 quality metric was assessed by Agilent 4200 High Sensitivity ScreenTape (5067-5579).

PFA-fixed Jurkats cells [3] = assay: Bulk un-fixing, then single-cell partition barcoding, 3'-RT and cDNA electropherogram (Example 7); details: Fresh cells partitioned with the RT assay reagent mix and the protease
Experimental: A. Protease preparation: A stock solution of 20 mg/mL Proteinase K (Sigma-Aldrich, cat. #AM258) was stored at −20° C.
B. Un-fixing agent of compound (8) stock solutions: A stock solution of the un-fixing agent of 100 mM compound (8) in 30 mM Tris-HCl, 1 mM EDTA, pH 6.8, was prepared and stored at room temperature.
as §2
D. Cell un-fixing/protease treatment: RNAse Inhibitor was added to the fixed cell solution together with 0.1 mg/mL Proteinase K and 50 mM compound (8). The fixed cell solution treated with the protease and compounds (8) were allowed to incubate at 53° C. for 45 min. The resulting cell solutions were spun down for 5 minutes at 500 g, 4° C., and the supernatant and pellet fractions were collected separately. […]

PFA-fixed Jurkats cells [4] = assay: RNA yield and DV200 from PFA-fixed Jurkats after Proteinase K with or without compounds (1) and/or (8) (Example 5); details: 4% PFA-fixed Jurkats, 53° C./45 min
Experimental: A. Protease preparation: A stock solution of 20 mg/mL Proteinase K (Sigma-Aldrich, cat. #_AM258) was stored at −20° C.
as §1, §2
D. Cell un-fixing/protease treatment: RNAse Inhibitor was added to the fixed cell solution together with one of the following: (a) 0.1 mg/mL Proteinase K protease; (b) 0.2 mg/mL Proteinase K protease; (c) 0.4 mg/mL Proteinase K protease; (d) 0.2 mg/mL Proteinase K protease and 50 mM compound (1); (e) 0.4 mg/mL Proteinase K protease and 50 mM compound (1); (f) 0.2 mg/mL Proteinase K protease and 50 mM compound (8); (g) 0.4 mg/mL Proteinase K protease and 50 mM compound (8); (h) 0.2 mg/mL Proteinase K protease and 25 mM compound (8) and 25 mM compound (1); or (i) 0.4 mg/mL Proteinase K protease and 25 mM compound (8) and 25 mM compound (1). The fixed cell solutions treated with Proteinase K protease and with or without the un-fixing agents of compounds (1) and/or (8) were allowed to incubate at 53° C. for 45 min. The resulting cell solutions were spun down for 5 minutes at 500 g, 4° C., and the supernatant and pellet fractions were collected separately.
as §3

[5] = 5 mg/mL Subtilisin A, 8° C./2 hr
[6] = un-fixing agent 50 mM (25 mM each in combination), 8° C./2 hr then 70° C./15 min
[7] = un-fixing agent 50 mM (25 mM each in combination), 53° C./45 min
[8] = Proteinase K at 0.2 mg/mL, un-fixing agent 50 mM (25 mM each in combination)
[9] = Proteinase K at 0.4 mg/mL, un-fixing agent 50 mM (25 mM each in combination)

B1: Subtilisin A: protease Subtilisin A from Bacillus licheniformis (Sigma-Aldrich, cat. #P5380) (protein, UniProt P00780 106-379, looked up)
Subtilisin Carlsberg: AQTVPYGIPLIKADKVQAQGFKGANVKVAVLDTGIQASHPDLNVVGGASFVAGEAYNTDGNGHGTHVAGTVAALDNTTGVLGVAPSVSLYAVKVLNSSGSGSYSGIVSGIEWATTNGMDVINMSLGGASGSTAMKQAVDNAYAKGVVVVAAAGNSGSSGNTNTIGYPAKYDSVIAVGAVDSNSNRASFSSVGAELEVMAPGAGVYSTYPTNTYATLNGTSMASPHVAGAAALILSKHPNLSASQVRNRLSSTATYLGSSFYYGKGLINVEAAAQ
Pellet Qubit Avg (SD), RNA yield (PFA-fixed Jurkats cells [1]; [5]): 21
Pellet Tapestation Avg (SD), RNA yield (PFA-fixed Jurkats cells [1]; [5]): 21
Supernatant Tapestation Avg (SD), RNA yield (PFA-fixed Jurkats cells [1]; [5]): 8
RNA recovery relative to fresh cells (PFA-fixed Jurkats cells [1]; Subtilisin A, 2 h at 8° C.): about 7%
Pellet Qubit Avg (SD), RNA yield (PFA-fixed Jurkats cells [2]; 8° C./2 hr): 108.4
Pellet Tapestation Avg (SD), RNA yield (PFA-fixed Jurkats cells [2]; 8° C./2 hr): 49
Supernatant Qubit Avg (SD), RNA yield (PFA-fixed Jurkats cells [2]; 8° C./2 hr): 0
Pellet Qubit Avg (SD), RNA yield (PFA-fixed Jurkats cells [2]; [6]): 106
Pellet Tapestation Avg (SD), RNA yield (PFA-fixed Jurkats cells [2]; [6]): 58
Supernatant Qubit Avg (SD), RNA yield (PFA-fixed Jurkats cells [2]; [6]): 398
Supernatant Tapestation Avg (SD), RNA yield (PFA-fixed Jurkats cells [2]; [6]): 231
Pellet Qubit Avg (SD), RNA yield (PFA-fixed Jurkats cells [2]; [7]): 144
Pellet Tapestation Avg (SD), RNA yield (PFA-fixed Jurkats cells [2]; [7]): 244
Supernatant Qubit Avg (SD), RNA yield (PFA-fixed Jurkats cells [2]; [7]): 245
Supernatant Tapestation Avg (SD), RNA yield (PFA-fixed Jurkats cells [2]; [7]): 252

B2: Proteinase K: the protease, Proteinase K (Sigma-Aldrich, cat. #AM258) (protein, UniProt P06873 106-384, looked up)
Proteinase K: AAQTNAPWGLARISSTSPGTSTYYYDESAGQGSCVYVIDTGIEASHPEFEGRAQMVKTYYYSSRDGNGHGTHCAGTVGSRTYGVAKKTQLFGVKVLDDNGSGQYSTIIAGMDFVASDKNNRNCPKGVVASLSLGGGYSSSVNSAAARLQSSGVMVAVAAGNNNADARNYSPASEPSVCTVGASDRYDRRSSFSNYGSVLDIFGPGTSILSTWIGGSTRSISGTSMATPHVAGLAAYLMTLGKTTAASACRYIADTANKGDLSNIPFGTVNLLAYNNYQA
cDNA electropherogram profile from single-cell 3'-RT (FIG. 11B) (PFA-fixed Jurkats cells [3]): no mound profile
Pellet Qubit Avg (SD), RNA yield (PFA-fixed Jurkats cells [4]; Proteinase K at 0.1 mg/mL): 1350
Pellet Tapestation Avg (SD), RNA yield (PFA-fixed Jurkats cells [4]; Proteinase K at 0.1 mg/mL): 1804.5
Supernatant Qubit Avg (SD), RNA yield (PFA-fixed Jurkats cells [4]; Proteinase K at 0.1 mg/mL): 321.3
Supernatant Tapestation Avg (SD), RNA yield (PFA-fixed Jurkats cells [4]; Proteinase K at 0.1 mg/mL): 152.55
Pellet Qubit Avg (SD), RNA yield (PFA-fixed Jurkats cells [4]; [8]): 107.82
Pellet Tapestation Avg (SD), RNA yield (PFA-fixed Jurkats cells [4]; [8]): 127.8
Supernatant Qubit Avg (SD), RNA yield (PFA-fixed Jurkats cells [4]; [8]): 251.1
Supernatant Tapestation Avg (SD), RNA yield (PFA-fixed Jurkats cells [4]; [8]): 121.05
Pellet Qubit Avg (SD), RNA yield (PFA-fixed Jurkats cells [4]; [9]): 106.2
Pellet Tapestation Avg (SD), RNA yield (PFA-fixed Jurkats cells [4]; [9]): 76.725
Supernatant Qubit Avg (SD), RNA yield (PFA-fixed Jurkats cells [4]; [9]): 266.4
Supernatant Tapestation Avg (SD), RNA yield (PFA-fixed Jurkats cells [4]; [9]): 125.55
